Our source for the switch fluorescence ratio values is the supplement of paper PMC10126150.

± gives the standard deviation of the averaged measurements.

The series concerns ATP. The series is described as follows: switch fluorescence ratio, 500 uM ATP over buffer (Cy3 cluster intensity, sum of 5 cycles each) (fold (ratio)); higher = stronger signal-on switching upon ATP binding; sequences stand for … in TCGTCGGCAGCGTCAGATGTGTATAAGAGACAGTTTTTTTTTTTTTTTTTTTTTTTTT…TC. The note with it: aptamer strand: ATP DNA aptamer (quencher-CACCTGGGGGAGTATTGCGGAGGAAGG + anchor), 100 nM annealed; ATP concentration: 500 uM. A digest of the protocol:
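Clusters carrying Cy3-labelled switching strands on a modified Illumina MiSeq flow-cell were annealed to 100 nM quencher-labelled ATP aptamer and imaged in selection buffer. They were imaged again after 15 min with 500 uM ATP at 22 °C, over five buffer/ATP cycles with NaOH stripping and re-annealing in between. For each cluster, the fluorescence ratio is the summed Cy3 intensity of the target cycles divided by that of the buffer cycles, averaged per switch-domain sequence. Clusters outside 100-1000 RFU were left out.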
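Note: ATP exposure 15 min at 22 °C before imaging.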

As to TATATGTGAT, the switch fluorescence ratio turned out to be 0.987 ± 0.017. Regarding TATATGTGGG, the switch fluorescence ratio came to 0.9705 ± 0.0077.

Regarding TATATTTCTA, the switch fluorescence ratio came out at 0.999 ± 0.035. Consider TATATTTTCA, for which the switch fluorescence ratio is 1.01 ± 0.068. For the sequence TATCAACTTG, the switch fluorescence ratio came to 1.02 ± 0.037. Regarding TATCACATTG, the switch fluorescence ratio was 0.992 ± 0.039. As for TATCAGGTAG, the switch fluorescence ratio is 1.001 ± 0.0052. On to TATCATATTA, for which the switch fluorescence ratio is 1 ± 0.037. With TATCATGCGC, the switch fluorescence ratio was 1.02 ± 0.054. As to TATCATGGGA, the switch fluorescence ratio worked out at 0.9982 ± 0.0087. For TATCATGGTG the value was 1.05 ± 0.058; for TATCCAGGGA, 1.026 ± 0.0046; for TATCCCAGGC, 1.31 ± 0.032. Regarding TATCCTTTTT, the switch fluorescence ratio turned out to be 1.03 ± 0.057. As to TATCGAGGGT, the switch fluorescence ratio is 0.9698 ± 0.0094. For the sequence TATCGAGTCG, the switch fluorescence ratio is 0.997 ± 0.034. For the sequence TATCGCCCTC, the switch fluorescence ratio amounted to 1.07 ± 0.011. Consider TATCGGAGAG, for which the switch fluorescence ratio was found to be 0.9835 ± 0.0016. For TATCGGCTGT, the switch fluorescence ratio is 1.01 ± 0.011. On to TATCGGGGTA, for which the switch fluorescence ratio came to 1.002 ± 0.0047.

On to TATCGGTAGC, for which the switch fluorescence ratio came to 1.017 ± 0.0025. In the case of TATCGTAGAG, the switch fluorescence ratio was 1.011 ± 0.0072. Take TATCGTGGAG: the switch fluorescence ratio came to 1.04 ± 0.042. For TATCGTTTTT the value was 0.987 ± 0.046. Regarding TATCTAGGTC, the switch fluorescence ratio turned out to be 0.954 ± 0.086. On to TATCTGGGCA, for which the switch fluorescence ratio worked out at 1.06 ± 0.087. For TATCTGGTAG the value was 1 ± 0.025; for TATCTTACGA, 1.02 ± 0.041. Turning to TATCTTTCGG, the switch fluorescence ratio was determined as 0.997 ± 0.021. Take TATGAAAAGT: the switch fluorescence ratio stood at 0.9926 ± 0.0072. In the case of TATGAACTGC, the switch fluorescence ratio amounted to 1.04 ± 0.041.

As for TATGAGAAGC, the switch fluorescence ratio was found to be 1 ± 0.017.

Take TATGAGCGCT: the switch fluorescence ratio amounted to 1.03 ± 0.054. For TATGAGGCCA the value was 1.04 ± 0.023; for TATGAGGGGG, 1.02 ± 0.04. With TATGAGGGTG the figure was 1.08 ± 0.13; with TATGAGGGTT, 1 ± 0.038. TATGAGTTGC: the switch fluorescence ratio worked out at 1.03 ± 0.011. Turning to TATGATAACT, the switch fluorescence ratio was 1.031 ± 0.0077. Regarding TATGATCTAG, the switch fluorescence ratio stood at 0.995 ± 0.014. On to TATGATGTAA, for which the switch fluorescence ratio is 1.02 ± 0.049.

In the case of TATGATTCAG, the switch fluorescence ratio turned out to be 0.98 ± 0.012. Regarding TATGATTTAT, the switch fluorescence ratio came to 0.995 ± 0.062. Turning to TATGCAATCA, the switch fluorescence ratio was 1.03 ± 0.02. Consider TATGCATGGA, for which the switch fluorescence ratio came to 1.009 ± 0.0082. Consider TATGCCCAGA, for which the switch fluorescence ratio worked out at 1.03 ± 0.041. For TATGCCTCTT the value was 1.01 ± 0.031. TATGCGCAGA: the switch fluorescence ratio came out at 1.01 ± 0.03. For the sequence TATGCTGGAT, the switch fluorescence ratio was 1.02 ± 0.059. Take TATGGAGATA: the switch fluorescence ratio was determined as 0.999 ± 0.013.

Consider TATGGAGGTT, for which the switch fluorescence ratio was 0.969 ± 0.0074. In the case of TATGGCATCG, the switch fluorescence ratio came out at 0.99 ± 0.014.

Turning to TATGGCTCTA, the switch fluorescence ratio is 0.9731 ± 0.00019. In the case of TATGGGACTC, the switch fluorescence ratio is 1.032 ± 0.0025. As to TATGGGCCGG, the switch fluorescence ratio came out at 1.07 ± 0.018. With TATGGGGGGC the figure was 0.983 ± 0.047; with TATGGGGGTA, 1.01 ± 0.029; with TATGGGGGTC, 1.02 ± 0.015. As for TATGGTAGC, the switch fluorescence ratio was determined as 0.989 ± 0.048. As to TATGGTCTTA, the switch fluorescence ratio came out at 0.987 ± 0.021. In the case of TATGGTCTTT, the switch fluorescence ratio came out at 0.979 ± 0.019. Take TATGGTGAAG: the switch fluorescence ratio is 1 ± 0.024.

For TATGGTGCCT, the switch fluorescence ratio is 1.02 ± 0.082. Regarding TATGGTGGGG, the switch fluorescence ratio worked out at 0.986 ± 0.034.

Consider TATGGTGTAG, for which the switch fluorescence ratio was found to be 1 ± 0.043. With TATGGTTATG the figure was 1.008 ± 0.0072; with TATGTACTAT, 1.08 ± 0.029; with TATGTAGAAG, 1 ± 0.027. Take TATGTAGACG: the switch fluorescence ratio was determined as 1.04 ± 0.064. With TATGTAGGAG, the switch fluorescence ratio turned out to be 0.994 ± 0.018.

For the sequence TATGTCATAC, the switch fluorescence ratio came out at 1.14 ± 0.058.

On to TATGTCTCTC, for which the switch fluorescence ratio amounted to 0.97458 ± 0.00069. Take TATGTGAGGC: the switch fluorescence ratio turned out to be 0.993 ± 0.011. As for TATGTGGCAC, the switch fluorescence ratio came to 1.08 ± 0.061. For the sequence TATGTGGGAT, the switch fluorescence ratio is 0.9734 ± 0.0016. Consider TATGTGTGTG, for which the switch fluorescence ratio is 0.9889 ± 0.0089. In the case of TATGTGTTGC, the switch fluorescence ratio is 1.03 ± 0.023. For the sequence TATGTTATAT, the switch fluorescence ratio stood at 0.991 ± 0.029. Consider TATGTTGTGT, for which the switch fluorescence ratio is 0.96 ± 0.037. With TATGTTTAAT, the switch fluorescence ratio was determined as 0.994 ± 0.041. With TATGTTTGCC, the switch fluorescence ratio stood at 1.02 ± 0.047.

As for TATGTTTT, the switch fluorescence ratio came to 1.02 ± 0.016. For TATGTTTTCT, the switch fluorescence ratio turned out to be 1.01 ± 0.039. For the sequence TATTAACGTA, the switch fluorescence ratio is 1.08 ± 0.022. On to TATTAAGGGA, for which the switch fluorescence ratio was determined as 0.995 ± 0.012. Take TATTAATTGG: the switch fluorescence ratio amounted to 0.9932 ± 0.0037. For TATTACTGAG, the switch fluorescence ratio worked out at 1.07 ± 0.036. For TATTACTTTG, the switch fluorescence ratio was found to be 1.01 ± 0.024. As for TATTAGAATA, the switch fluorescence ratio is 0.9814 ± 0.006. For TATTAGACTA the value was 1.02 ± 0.022; for TATTAGGGGC, 1.04 ± 0.036; for TATTAGTAAT, 1.002 ± 0.0032. As for TATTAGTAGC, the switch fluorescence ratio was found to be 0.9995 ± 0.0013.

As for TATTAGTTAA, the switch fluorescence ratio came to 0.992 ± 0.019. Take TATTATGCGA: the switch fluorescence ratio came out at 1.04 ± 0.022.

On to TATTATGTCA, for which the switch fluorescence ratio is 1.01 ± 0.043. With TATTATTTTC the figure was 1.03 ± 0.046; with TATTCAGGGA, 1.02 ± 0.02. Consider TATTCAGTCG, for which the switch fluorescence ratio was 0.9927 ± 0.0051. For TATTCATCGT, the switch fluorescence ratio was found to be 0.9932 ± 0.0075. TATTCTAATT: the switch fluorescence ratio amounted to 1.004 ± 0.006. Regarding TATTCTCGAC, the switch fluorescence ratio was 1.01 ± 0.013. TATTCTGCTA: the switch fluorescence ratio turned out to be 1.02 ± 0.024. As for TATTCTTTTT, the switch fluorescence ratio was 0.968 ± 0.04. On to TATTGAAATT, for which the switch fluorescence ratio turned out to be 1.05 ± 0.022. As to TATTGACAA, the switch fluorescence ratio came to 1.02 ± 0.019. As to TATTGAGAAG, the switch fluorescence ratio worked out at 0.987 ± 0.025.

For TATTGAGAGT, the switch fluorescence ratio was determined as 0.991 ± 0.032. Consider TATTGAGATA, for which the switch fluorescence ratio turned out to be 1.01 ± 0.04. On to TATTGAGGAG, for which the switch fluorescence ratio worked out at 1.01 ± 0.011. For TATTGATATT, the switch fluorescence ratio is 1.06 ± 0.14.

As for TATTGATTTA, the switch fluorescence ratio is 1.02 ± 0.042. Turning to TATTGCCGGG, the switch fluorescence ratio was found to be 0.985 ± 0.036. As for TATTGCGGGG, the switch fluorescence ratio came to 1.2 ± 0.42.

In the case of TATTGGAGAT, the switch fluorescence ratio is 1 ± 0.021.

Consider TATTGGCTAA, for which the switch fluorescence ratio was 0.987 ± 0.034.

With TATTGGGGAG, the switch fluorescence ratio turned out to be 1.13 ± 0.29. TATTGGGGAT: the switch fluorescence ratio was determined as 1.06 ± 0.043.

TATTGGGGGT: the switch fluorescence ratio is 1.01 ± 0.044. As for TATTGGGTCA, the switch fluorescence ratio was 0.996 ± 0.03.
